Experimental data: patent US20230392126A1, “TISSUE ORGANOIDS” (priority 2016, published 2023)

How the values were obtained:
[1] = Acquisition of cocaine conditioned place preference (CPP); format: in vivo, mouse; details: 10 mg/kg cocaine i.p., grafted cocaine-naïve mice
Protocol: CPP apparatus: The CPP apparatus (FIG. 17; Med Associates, E. Fairfield, VT, USA) consisted of two larger chambers (16.8×12.7×12.7 cm), which were separated by a smaller chamber (7.2×12.7×12.7 cm) as previously described (Yan et al., 2013). […] Time spent in each chamber was measure via photobeam breaks and recorded. CPP was determined on testing days via time spent in the drug-paired side minus time spent in the saline-paired side.
Acquisition of CPP: A biased CPP procedure was used similar to that from a previous study (Yan et al., 2013). Acquisition of CPP consisted of three sequential procedures—pretest, conditioning, and test. […] On Day 6 (test day) mice were allowed to explore the entire chambers for 20 min and time spent in each area was recorded. […]
Next, protection against development of cocaine-seeking was assessed using the conditioned place preference (CPP) paradigm, which is thought to model reward learning and seeking because experimental animals approach and remain in contact with cues that have been paired with the effects of the reward. hBChE-expressing cells were grafted to cocaine-naïve mice with GWT animals as controls. […] As an additional control, ethanol CPP was measured after 4 days of conditioning in GhBChE and GWT mice.

[2] = tested on: human epidermal keratinocytes; experiment: Cell proliferation and differentiation of engineered human epidermal cells in vitro; format: cell-based
Protocol: Primary human neonatal epidermal keratinocytes were obtained from Thermo Fischer® (C0015C), and cultured with Epilife® medium (Thermo Fischer, M-EPICF-500) with manufacturer's recommended procedures. Calcium shift was performed to induce differentiation of primary keratinocytes by increasing the calcium concentration in culture media to 1.5 mM.
Propidium iodide (PI) staining followed by flow cytometry were used to determine the effect of cell cycle profiles. Mouse and human epidermal cells were cultured in two 6 cm cell culture dish for 24 hours, respectively. Cells were trypsinized, and 1×10^5 cells from each dish were collected, followed by one PBS wash. […] After staining, the cells were analyzed immediately using flow cytometer BD FACSCanto™ II (BD Biosciences, San Jose, CA) with an excitation wavelength at 488 nm and emission at 585 nm. DNA content and histograms of cell cycle distribution were analyzed using FlowJo™ software, version 10 (FLOWJO LLC, OR).
Western blotting was performed as described previously (Blanpain et al.). […] Visualization and quantification was carried out with the LI-COR Odyssey® scanner and software (LI-COR Biosciences).
Propidium iodide (PI) staining followed by flow cytometry were used to determine the effect of cell cycle profiles. […] DNA content and histograms of cell cycle distribution were analyzed using FlowJo™ software, version 10 (FLOWJO LLC, OR). […]

mouse epidermal cells = experiment: Expression and secretion of hBChE by immunoblots and ELISA (mouse epidermal cells); details: engineered mouse epidermal cells

B1: hBChE: modified human butyrylcholinesterase (E30-6, SEQ ID NO: 41), cocaine hydrolase, expressed from engineered epidermal cells / skin grafts (protein)
chain: MHSKVTIICIRFLFWFLLLCMLIGKSHTEDDIIIATKNGKVRGMNLTVFGGTVTAFLGIPYAQPPLGRLRFKKPQSLTKWSDIWNATKYANSCCQNIDQSFPGFHGSEMWNPNTDLSEDCLYLNVWIPAPKPKNATVLIWIYGGGFQTGTSSLHVYDGKFLARVERVIVVSMNYRVGALGFLALPGNPEAPGNMGLFDQQLALQWVQKNIAAFGGNPKSVTLFGESSGAASVSLHLLSPGSHSLFTRAILQSGSANAPWAVTSLYEARNRTLNLAKLTGCSRENETEIIKCLRNKDPQEILLNEAFVVPYGTALGVNFGPTVDGDFLTDMPDILLELGQFKKTQILVGVNKDEGTWFLVGGAPGFSKDNNSIITRKEFQEGLKIFFPGVSEFGKESILFHYTDWVDDQRPENYREALGDVVGDYNFICPALEFTKKFSEWGNNAFFYYFEHRSSKLPWPEWMGVMHGYEIEFVFGLPLERRDNYTKAEEILSRSIVKRWANFAKYGNPNETQNNSTSWPVFKSTEQKYLTLNTESTRIMTKLRAQQCRFWTSFFPKVLEMTGNIDEAEWEWKAGFHRWNNYMMDWKNQFNDYTSKKESCVGL
modifications: Human mutant BChE
[1]
  cocaine CPP after 4 days of place conditioning: showed no such preference
[2]
  effect of expression on cell proliferation / differentiation in vitro: did not significantly change cell proliferation
Mouse epidermal cells
  expression and secretion of hBChE: robust expression and secretion of hBChE
